Paper PMC3896610
Read-outs that look alike come from different tables or passages of the source.

Columns and labels:
IgG1-K409R-CD20 (human) [1] = experiment: analytical cation-exchange chromatography
IgG1-K409R-CD20 (human) [2] = experiment: analytical cation-exchange chromatography; remark: listed apart in the source

% bsIgG1-EGFRxCD20 by CIEX (IgG1-K409R-CD20 (human) [1]): 95% | % bsIgG1-EGFRxCD20 by CIEX (IgG1-K409R-CD20 (human) [2]): 96.3%
B1: IgG1-F405L-EGFR (antibody, V domains shown)
VH: QVQLVESGGGVVQPGRSLRLSCAASGFTFSTYGMHWVRQAPGKGLEWVAVIWDDGSYKYYGDSVKGRFTISRDNSKNTLYLQMNSLRAEDTAVYYCARDGITMVRGVMKDYFDYWGQGTLVTVSS
VL: AIQLTQSPSSLSASVGDRVTITCRASQDISSALVWYQQKPGKAPKLLIYDASSLESGVPSRFSGSESGTDFTLTISSLQPEDFATYYCQQFNSYPLTFGGGTKVEIK
